Data set [1] concerns the molecule itself. The experiment in a line: […] (pH 7.8), room temperature; 1 mg/mL to 13.2 mg/mL (100 μM to 1.3 mM); […].
Data set [2] concerns the molecule itself. Nature of the data set: SEC; […] (pH 7.8), 150 mM NaCl, 0.5 mL/min; […].

Several values for one entry are separate records, joined by “and”; a condition that tells them apart may be missing. Equal entries are not always repeated.

B1: Mu8.1 (SLC_Mu8.1), macro-conotoxin from Conus mucronatus (natural protein)
chain: GENSDNLTHCRLFEFRLCLLECMSLTLDHCYARCTTVITQIHGSDTNRFDCTIFKTCYYRCYVLGKTEDHCWKGTATSVTGDVGDLEFC
notes: also called Mu8.1_38; Mu8.1_59
For B1, the “stoichiometry N” value in data set [1] is 4 and 6; in data set [2] it was 2.

Source of the values: PMC10437998, “A previously unrecognized superfamily of macro-conotoxins includes an inhibitor of the sensory neuron calcium channel Cav2.3” (PLOS Biology, 2023).
